According to patent US20120065134A1 (PHYLOGICA, published 2012):
Where no end group is shown, it is not given here. PEG = not defined here

B1: PEGylated CD40L M1_6s (peptide)
peptide: {PEG}-HPFSIKNVFSIWNFFSVY
modifications: reading uncertain; also: PEG size and spacer not given here
B2: Cys_M1_6S (peptide)
peptide: CHPFSIKNVFSIWNFFSVY
modifications: a cysteine-containing linker (8-amino-3,6-dioxaoctanoyl type, FIG. 1b) may stand between Cys and the peptide; not stated for this molecule
notes: also called cysteine-containing derivative of M1-6S
B3: PEGylated CD40L M1_9s (peptide)
peptide: {PEG}-PPRYNLFFLFRFYSSFRRDYLYF
modifications: reading uncertain; also: PEG size and spacer not given here
B4: CD40 ligand (CD40L or CD154) (ligand)
chain: MQKGDQNPQIAAHVISEASSKTTSVLQWAEKGYYTMSNNLVTLENGKQLTVKRQGLYYIYAQVTFCSNREASSQAPFIASLCLKSPGRFERILLRAANTHSSAKPCGQQSIHLGGVFELQPGASVFVNVTDPSQVSHGTGFTSFGLLKL
modifications: biotinylated ('biotinylated phospho-CD40L') in the proximity assay as described in paragraph 342
notes: Species never stated; also called soluble CD40L; CD40L target protein
B5: PEGylated CD40L M1_18s (peptide)
peptide: {PEG}-LPFVPYRSHVLKYGWFFPVQWSIFAVLPFQYLHRSR
modifications: reading uncertain; also: PEG size and spacer not given here
B6: PEGylated CD40L M1_30s (peptide)
peptide: {PEG}-DAAGREFFQIAGLFSFRHHWWQA
modifications: reading uncertain; also: PEG size and spacer not given here
B7: PEGylated CD40L M1_42s (peptide)
peptide: {PEG}-HSFVLFGVNVPFNIIDFQMRVKS
modifications: reading uncertain; also: PEG size and spacer not given here
B8: PEGylated CD40L M1_50s (peptide)
peptide: {PEG}-PRWVRNRFYSLFVPSGVQRGGIHLWFSNWVR
modifications: reading uncertain; also: PEG size and spacer not given here
B9: CD40L M7_217 (peptide)
peptide: LCEMIAIYVFLWKKVFL
B10: CD40L M8_747 (peptide)
peptide: LAEHAVWSLKCFPDWEWYNINIFGTDDPNHFWVECDGHGKILFPGYPEGYYENHFLHSFELED

Columns and labels:
[1] = molecular target: B4; experiment: cell-based or functional assay
[2] = molecular target: B4; experiment: Alphascreen proximity assay, 0.75nM CD40L; peptide titrated; blocked ligand is CD40 (CD40-Fc on acceptor beads)
[3] = molecular target: B4; experiment: Alphascreen proximity assay; peptide titrated, axis Phylomer (M); blocked ligand is CD40 (CD40-Fc on acceptor beads)
[4] = molecular target: B4; experiment: Alphascreen proximity assay, inhibition of CD40L-CD40 interaction
[5] = molecular target: B4; experiment: cell-based or functional assay; remark: listed apart in the source
[6] = molecular target: T1, CD40L M8_748; experiment: BLI, Octet Red (ForteBio), label-free
T1 construct: Base peptide, natural open reading frame

[7] = molecular target: CD40 on primary B-cells; experiment: cell-based or functional assay
[8] = molecular target: B4; experiment: Alphascreen proximity assay, inhibition of CD40L/CD40-Fc interaction, unmodified peptide
[9] = molecular target: B4; experiment: BLI, Octet Red (ForteBio), label-free

In the case of B1, the “EC50, inhibition of CD40L-induced CD86 expression on primary B-cells (FACS), PEGylated peptide” value (shortened to “EC50, inhibition … PEGylated peptide”) [1] is reported as 1.5 nM.

With B2 the “IC50 (read off the curve)” value [2] was ~300 nM, the “IC50 (read off the curve)” value [3] was ~300 nM and the EC50 [4] was 0.265 nM. For the same binder, the “EC50, inhibition of CD40L-induced CD86 expression on primary B-cells” value [5] was 306 nM.

For B3, the “EC50, inhibition … PEGylated peptide” value [1] was 180 nM.

For B4, the Kd [6] was 5 nM and the “EC50, induction of CD86 expression on primary B-cells by CD40L” value [7] was ~9 nM.

For B5, the “EC50, inhibition … PEGylated peptide” value [1] was 90 nM.

With B6 the “EC50, inhibition … PEGylated peptide” value [1] was > 2000 nM.

B7 was tested, and the “EC50, inhibition … PEGylated peptide” value [1] was 5000 nM.

B8 was tested, and the “EC50, inhibition … PEGylated peptide” value [1] was 30 nM.

B9 was tested, and the “EC50, inhibition of CD40L-induced CD86 expression on primary B-cells (FACS), unmodified peptide” value [1] was 2500 nM.

Work on B10 yielded an EC50 [8] of 197 nM and a Kd [9] of 8 nM.
